From patent publication US20240123029A1 come the findings set out here.

This experiment addresses Recombinant human mannose binding lectin (MBL) (human) (UniProt P11226).

Chain of Recombinant human mannose binding lectin (MBL) (human) (P11226 21-248 limits assumed): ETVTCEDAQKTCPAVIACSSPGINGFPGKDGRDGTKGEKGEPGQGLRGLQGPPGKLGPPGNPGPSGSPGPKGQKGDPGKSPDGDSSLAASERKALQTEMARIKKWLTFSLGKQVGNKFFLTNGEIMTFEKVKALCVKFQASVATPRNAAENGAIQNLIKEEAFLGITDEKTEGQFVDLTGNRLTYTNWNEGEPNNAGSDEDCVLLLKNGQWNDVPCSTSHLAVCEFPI

As for “Biotinylated SARS-CoV-2 S protein, His Tag, active trimer (from UniProt P0DTC2 16-1213) (other; other documents disagree on this pair)”, the EC50 (read off the curve) – broadly, the concentration that produces a half-maximal response – turned out to be 3 nM.
